Experimental data published in publication PMC4733626.

Molecular target: wild-type metallo-β-lactamase L1 (UniProt P52700)
Test: SEC

“spin-labeled T163C/K286C mutant of metallo-β-lactamase L1 (enzyme)” showed a stoichiometry N of 4.
